System: NPR2
Assay: cGMP catchpoint assay of NPR2 variants in transfected HEK293 cells treated with 20 nM CNP
Format: cell-based
Parameters: key to Lable: loss-of-function (LoF); Gain-of-function (GoF)
Settings: for average phenotype: cGMP normalized to RedLuciferase and to WT = 1, HEK293, 20 nM CNP, 0.4 nM IBMX, at least 3 repeat experiments with 4 replicates each; for Lable: high-confidence variant class
Method: Described herein is an in-vitro assay (cGMP) to assess the activities of >260 NPR2 variants. NPR2 protein-altering variants have been identified in the UK Biobank study and described in Estrada et al. (Nat Commun. 2021 12 (1): 2224). NPR2-expression constructs were transfected into HEK293 cells and 3 days later cells were treated with […] IBMX and 20 nM CNP in serum-free DMEM prior to measuring cGMP levels. The cGMP catchpoint ELISA competition assay (Molecular Devices) was used to measure cGMP according to manufacturer recommendations. RedLuc was used as a transfection control (FIG. 8A).
The NPR2 alpha-fold structure was obtained from a recent alpha-fold publication (Jumper et al., Nature 596:583-589 (2021)). A list of phenotypically characterized “high-confidence” variants was generated (Table 4). Phenotype is calculated by determining levels of cGMP using a standard curve. This value to normalized to RedLuciferase (transfection control). This value is further normalized by setting WT to 1. Average value is calculated from at least 3 repeat experiments with 4 replicates each.

B1: Lys1006Thr: NPR2 protein-altering variant, expression construct transfected into HEK293 cells (protein)
chain: RNLTLAVVLPEHNLSYAWAWPRVGPAVALAVEALGRALPVDLRFVSSELEGACSEYLAPLSAVDLKLYHDPDLLLGPGCVYPAASVARFASHWRLPLLTAGAVASGFSAKNDHYRTLVRTGPSAPKLGEFVVTLHGHFNWTARAALLYLDARTDDRPHYFTIEGVFEALQGSNLSVQHQVYAREPGGPEQATHFIRANGRIVYICGPLEMLHEILLQAQRENLTNGDYVFFYLDVFGESLRAGPTRATGRPWQDNRTREQAQALREAFQTVLVITYREPPNPEYQEFQNRLLIRAREDFGVELGPSLMNLIAGCFYDGILLYAEVLNETIQEGGTREDGLRIVEKMQGRRYHGVTGLVVMDKNNDRETDFVLWAMGDLDSGDFQPAAHYSGAEKQIWWTGRPIPWVKGAPPSDNPPCAFDLDDPSCDKTPLSTLAIVALGTGITFIMFGVSSFLIFRKLMLEKELASMLWRIRWEELQFGNSERYHKGAGSRLTLSLRGSSYGSLMTAHGKYQIFANTGHFKGNVVAIKHVNKKRIELTRQVLFELKHMRDVQFNHLTRFIGACIDPPNICIVTEYCPRGSLQDILENDSINLDWMFRYSLINDLVKGMAFLHNSIISSHGSLKSSNCVVDSRFVLKITDYGLASFRSTAEPDDSHALYAKKLWTAPELLSGNPLPTTGMQKADVYSFGIILQEIALRSGPFYLEGLDLSPKEIVQKVRNGQRPYFRPSIDRTQLNEELVLLMERCWAQDPAERPDFGQIKGFIRRFNKEGGTSILDNLLLRMEQYANNLEKLVEERTQAYLEEKRKAEALLYQILPHSVAEQLKRGETVQAEAFDSVTIYFSDIVGFTALSAESTPMQVVTLLNDLYTCFDAIIDNFDVYKVETIGDAYMVVSGLPGRNGQRHAPEIARMALALLDAVSSFRIRHRPHDQLRLRIGVHTGPVCAGVVGLKMPRYCLFGDTVNTASRMESNGQALKIHVSSTTTDALDELGCFQLELRGDVEMKGKGKMRTYWLLGERKGPPGLL
In the case of B1, the average phenotype is reported as 0.0551 and the Lable is reported as “LoF”.

B2: Ala48Ser: NPR2 protein-altering variant, expression construct transfected into HEK293 cells (protein)
chain: RNLTLAVVLPEHNLSYAWAWPRVGPSVALAVEALGRALPVDLRFVSSELEGACSEYLAPLSAVDLKLYHDPDLLLGPGCVYPAASVARFASHWRLPLLTAGAVASGFSAKNDHYRTLVRTGPSAPKLGEFVVTLHGHFNWTARAALLYLDARTDDRPHYFTIEGVFEALQGSNLSVQHQVYAREPGGPEQATHFIRANGRIVYICGPLEMLHEILLQAQRENLTNGDYVFFYLDVFGESLRAGPTRATGRPWQDNRTREQAQALREAFQTVLVITYREPPNPEYQEFQNRLLIRAREDFGVELGPSLMNLIAGCFYDGILLYAEVLNETIQEGGTREDGLRIVEKMQGRRYHGVTGLVVMDKNNDRETDFVLWAMGDLDSGDFQPAAHYSGAEKQIWWTGRPIPWVKGAPPSDNPPCAFDLDDPSCDKTPLSTLAIVALGTGITFIMFGVSSFLIFRKLMLEKELASMLWRIRWEELQFGNSERYHKGAGSRLTLSLRGSSYGSLMTAHGKYQIFANTGHFKGNVVAIKHVNKKRIELTRQVLFELKHMRDVQFNHLTRFIGACIDPPNICIVTEYCPRGSLQDILENDSINLDWMFRYSLINDLVKGMAFLHNSIISSHGSLKSSNCVVDSRFVLKITDYGLASFRSTAEPDDSHALYAKKLWTAPELLSGNPLPTTGMQKADVYSFGIILQEIALRSGPFYLEGLDLSPKEIVQKVRNGQRPYFRPSIDRTQLNEELVLLMERCWAQDPAERPDFGQIKGFIRRFNKEGGTSILDNLLLRMEQYANNLEKLVEERTQAYLEEKRKAEALLYQILPHSVAEQLKRGETVQAEAFDSVTIYFSDIVGFTALSAESTPMQVVTLLNDLYTCFDAIIDNFDVYKVETIGDAYMVVSGLPGRNGQRHAPEIARMALALLDAVSSFRIRHRPHDQLRLRIGVHTGPVCAGVVGLKMPRYCLFGDTVNTASRMESNGQALKIHVSSTTKDALDELGCFQLELRGDVEMKGKGKMRTYWLLGERKGPPGLL
B2 was tested, and the average phenotype was 0.06785 and the Lable was “LoF”.

B3: Ser522Pro: NPR2 protein-altering variant, expression construct transfected into HEK293 cells (protein)
chain: RNLTLAVVLPEHNLSYAWAWPRVGPAVALAVEALGRALPVDLRFVSSELEGACSEYLAPLSAVDLKLYHDPDLLLGPGCVYPAASVARFASHWRLPLLTAGAVASGFSAKNDHYRTLVRTGPSAPKLGEFVVTLHGHFNWTARAALLYLDARTDDRPHYFTIEGVFEALQGSNLSVQHQVYAREPGGPEQATHFIRANGRIVYICGPLEMLHEILLQAQRENLTNGDYVFFYLDVFGESLRAGPTRATGRPWQDNRTREQAQALREAFQTVLVITYREPPNPEYQEFQNRLLIRAREDFGVELGPSLMNLIAGCFYDGILLYAEVLNETIQEGGTREDGLRIVEKMQGRRYHGVTGLVVMDKNNDRETDFVLWAMGDLDSGDFQPAAHYSGAEKQIWWTGRPIPWVKGAPPSDNPPCAFDLDDPSCDKTPLSTLAIVALGTGITFIMFGVSSFLIFRKLMLEKELASMLWRIRWEELQFGNSERYHKGAGSRLTLSLRGPSYGSLMTAHGKYQIFANTGHFKGNVVAIKHVNKKRIELTRQVLFELKHMRDVQFNHLTRFIGACIDPPNICIVTEYCPRGSLQDILENDSINLDWMFRYSLINDLVKGMAFLHNSIISSHGSLKSSNCVVDSRFVLKITDYGLASFRSTAEPDDSHALYAKKLWTAPELLSGNPLPTTGMQKADVYSFGIILQEIALRSGPFYLEGLDLSPKEIVQKVRNGQRPYFRPSIDRTQLNEELVLLMERCWAQDPAERPDFGQIKGFIRRFNKEGGTSILDNLLLRMEQYANNLEKLVEERTQAYLEEKRKAEALLYQILPHSVAEQLKRGETVQAEAFDSVTIYFSDIVGFTALSAESTPMQVVTLLNDLYTCFDAIIDNFDVYKVETIGDAYMVVSGLPGRNGQRHAPEIARMALALLDAVSSFRIRHRPHDQLRLRIGVHTGPVCAGVVGLKMPRYCLFGDTVNTASRMESNGQALKIHVSSTTKDALDELGCFQLELRGDVEMKGKGKMRTYWLLGERKGPPGLL
In the case of B3, the average phenotype is reported as 0.05673 and the Lable is reported as “LoF”.

B4: Arg601Ser: NPR2 protein-altering variant, expression construct transfected into HEK293 cells (protein)
chain: RNLTLAVVLPEHNLSYAWAWPRVGPAVALAVEALGRALPVDLRFVSSELEGACSEYLAPLSAVDLKLYHDPDLLLGPGCVYPAASVARFASHWRLPLLTAGAVASGFSAKNDHYRTLVRTGPSAPKLGEFVVTLHGHFNWTARAALLYLDARTDDRPHYFTIEGVFEALQGSNLSVQHQVYAREPGGPEQATHFIRANGRIVYICGPLEMLHEILLQAQRENLTNGDYVFFYLDVFGESLRAGPTRATGRPWQDNRTREQAQALREAFQTVLVITYREPPNPEYQEFQNRLLIRAREDFGVELGPSLMNLIAGCFYDGILLYAEVLNETIQEGGTREDGLRIVEKMQGRRYHGVTGLVVMDKNNDRETDFVLWAMGDLDSGDFQPAAHYSGAEKQIWWTGRPIPWVKGAPPSDNPPCAFDLDDPSCDKTPLSTLAIVALGTGITFIMFGVSSFLIFRKLMLEKELASMLWRIRWEELQFGNSERYHKGAGSRLTLSLRGSSYGSLMTAHGKYQIFANTGHFKGNVVAIKHVNKKRIELTRQVLFELKHMRDVQFNHLTRFIGACIDPPNICIVTEYCPSGSLQDILENDSINLDWMFRYSLINDLVKGMAFLHNSIISSHGSLKSSNCVVDSRFVLKITDYGLASFRSTAEPDDSHALYAKKLWTAPELLSGNPLPTTGMQKADVYSFGIILQEIALRSGPFYLEGLDLSPKEIVQKVRNGQRPYFRPSIDRTQLNEELVLLMERCWAQDPAERPDFGQIKGFIRRFNKEGGTSILDNLLLRMEQYANNLEKLVEERTQAYLEEKRKAEALLYQILPHSVAEQLKRGETVQAEAFDSVTIYFSDIVGFTALSAESTPMQVVTLLNDLYTCFDAIIDNFDVYKVETIGDAYMVVSGLPGRNGQRHAPEIARMALALLDAVSSFRIRHRPHDQLRLRIGVHTGPVCAGVVGLKMPRYCLFGDTVNTASRMESNGQALKIHVSSTTKDALDELGCFQLELRGDVEMKGKGKMRTYWLLGERKGPPGLL
For B4, the average phenotype was 0.05949 and the Lable was “LoF”.
